Assay results taken from US20240287202A1 (XYPHOS BIOSCIENCES, published 2024).
Changes are numbered by the printed parent chain. In names and notes the source's numbering stands.

T1: His-tagged monomeric ULBP2 R81W (human, UniProt Q9BZM5 29-212)
T1 construct: range 29-212; Construct limits are stated only for wild-type ULBP2-His; position 81 counts on the mature protein, not on the UniProt entry
T1 sequence: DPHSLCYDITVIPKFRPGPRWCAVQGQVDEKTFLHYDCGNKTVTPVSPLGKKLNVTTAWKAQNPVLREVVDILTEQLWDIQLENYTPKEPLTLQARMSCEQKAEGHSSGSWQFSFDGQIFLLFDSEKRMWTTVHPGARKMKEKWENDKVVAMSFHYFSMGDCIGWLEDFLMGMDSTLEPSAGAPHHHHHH

T2: ULBP4-Fc (R&D Systems) (human, UniProt Q8TD07 31-225, limits assumed)
T2 construct: Bought; also called Ligand-Fc fusion; not shown: Fc of the bought fusion; not described
T2 sequence (looked up): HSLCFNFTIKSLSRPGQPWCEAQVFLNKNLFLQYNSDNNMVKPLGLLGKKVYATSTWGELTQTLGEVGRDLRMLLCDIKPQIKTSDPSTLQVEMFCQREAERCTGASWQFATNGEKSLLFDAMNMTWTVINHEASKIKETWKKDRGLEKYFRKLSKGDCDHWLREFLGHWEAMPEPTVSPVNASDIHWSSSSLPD

T3: MICA-Fc (R&D Systems) (human, UniProt Q29983 24-308, limits assumed)
T3 construct: Bought; also called Ligand-Fc fusion; not shown: Fc of the bought fusion; not described
T3 sequence (looked up): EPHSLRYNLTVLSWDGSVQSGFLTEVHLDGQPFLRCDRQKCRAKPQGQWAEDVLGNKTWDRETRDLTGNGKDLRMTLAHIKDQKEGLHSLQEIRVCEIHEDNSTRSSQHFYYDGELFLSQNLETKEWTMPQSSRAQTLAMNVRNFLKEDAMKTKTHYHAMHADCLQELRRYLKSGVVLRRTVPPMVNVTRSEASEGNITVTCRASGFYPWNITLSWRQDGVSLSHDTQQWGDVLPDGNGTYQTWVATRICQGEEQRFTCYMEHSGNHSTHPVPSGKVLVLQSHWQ

T4: ULBP3-Fc (R&D Systems) (human, UniProt Q9BZM4 30-217)
T4 construct: Bought; also called Ligand-Fc fusion; not shown: Fc of the bought fusion; not described
T4 sequence (looked up): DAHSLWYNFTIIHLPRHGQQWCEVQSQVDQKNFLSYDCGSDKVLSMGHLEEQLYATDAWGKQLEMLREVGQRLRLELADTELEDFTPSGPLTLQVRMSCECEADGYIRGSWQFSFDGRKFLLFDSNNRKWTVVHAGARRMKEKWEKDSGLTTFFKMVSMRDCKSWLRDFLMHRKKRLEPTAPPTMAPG

T5: ULBP2-Fc (R&D Systems) (human, UniProt Q9BZM5 26-217)
T5 construct: Bought; also called Ligand-Fc fusion; not shown: Fc of the bought fusion; not described
T5 sequence (looked up): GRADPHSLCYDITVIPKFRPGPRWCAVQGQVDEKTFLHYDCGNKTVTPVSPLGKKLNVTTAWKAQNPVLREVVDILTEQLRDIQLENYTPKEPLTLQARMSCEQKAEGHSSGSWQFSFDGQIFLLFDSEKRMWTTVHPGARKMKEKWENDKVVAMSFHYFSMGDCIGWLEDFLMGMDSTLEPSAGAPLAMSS

T6: MICB-Fc (R&D Systems) (human, UniProt Q29980 23-298, limits assumed)
T6 construct: Bought; also called Ligand-Fc fusion; not shown: Fc of the bought fusion; not described
T6 sequence (looked up): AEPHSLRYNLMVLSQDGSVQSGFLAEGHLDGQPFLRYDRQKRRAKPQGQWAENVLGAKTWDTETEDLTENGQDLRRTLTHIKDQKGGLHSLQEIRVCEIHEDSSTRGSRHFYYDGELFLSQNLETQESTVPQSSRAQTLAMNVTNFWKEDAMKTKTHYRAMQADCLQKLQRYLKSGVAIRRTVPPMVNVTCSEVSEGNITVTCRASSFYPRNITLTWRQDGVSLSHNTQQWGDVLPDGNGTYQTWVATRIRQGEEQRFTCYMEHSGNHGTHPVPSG

T7: ULBP1-Fc (R&D Systems) (human, UniProt Q9BZM6 26-216)
T7 construct: Bought; also called Ligand-Fc fusion; not shown: Fc of the bought fusion; not described
T7 sequence (looked up): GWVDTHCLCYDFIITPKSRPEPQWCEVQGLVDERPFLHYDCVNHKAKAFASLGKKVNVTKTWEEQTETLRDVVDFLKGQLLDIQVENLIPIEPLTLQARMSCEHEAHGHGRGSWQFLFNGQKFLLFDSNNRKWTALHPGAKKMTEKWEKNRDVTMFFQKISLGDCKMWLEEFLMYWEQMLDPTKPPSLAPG

T8: A1-A2 domain of human ULBP3 with C-terminal 6x-His tag (monomer) (human, UniProt Q9BZM4 30-212)
T8 construct: range 30-212; also called MIC-His ligand
T8 sequence: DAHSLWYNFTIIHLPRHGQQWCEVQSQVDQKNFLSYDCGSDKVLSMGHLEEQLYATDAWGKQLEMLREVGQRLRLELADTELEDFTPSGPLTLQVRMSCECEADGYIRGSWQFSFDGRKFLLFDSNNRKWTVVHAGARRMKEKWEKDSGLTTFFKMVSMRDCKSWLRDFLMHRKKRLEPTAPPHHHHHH

T9: A1-A2 domain of human MICA*001 with C-terminal 6x-His tag (monomer) (human, UniProt Q29983 24-205)
T9 construct: range 24-205; also called MIC-His ligand
T9 sequence: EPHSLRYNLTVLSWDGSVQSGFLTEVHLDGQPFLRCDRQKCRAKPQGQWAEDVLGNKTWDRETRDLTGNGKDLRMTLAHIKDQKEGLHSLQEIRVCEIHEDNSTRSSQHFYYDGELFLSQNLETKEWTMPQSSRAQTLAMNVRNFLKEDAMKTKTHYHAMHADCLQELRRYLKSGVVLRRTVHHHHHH

T10: A1-A2 domain of human MICB with C-terminal 6x-His tag (monomer) (human, UniProt Q29980 24-205)
T10 construct: range 24-205; also called MIC-His ligand
T10 sequence: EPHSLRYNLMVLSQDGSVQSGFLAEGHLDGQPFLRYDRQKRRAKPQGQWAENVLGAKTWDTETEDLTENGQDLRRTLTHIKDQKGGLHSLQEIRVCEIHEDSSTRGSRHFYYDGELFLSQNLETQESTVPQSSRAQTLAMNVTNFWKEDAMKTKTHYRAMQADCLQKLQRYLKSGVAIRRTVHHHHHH

T11: mouse NKG2D (mouse, UniProt O54709 94-232, limits assumed)
T11 construct: also called mouse wild-type NKG2D
T11 sequence (looked up): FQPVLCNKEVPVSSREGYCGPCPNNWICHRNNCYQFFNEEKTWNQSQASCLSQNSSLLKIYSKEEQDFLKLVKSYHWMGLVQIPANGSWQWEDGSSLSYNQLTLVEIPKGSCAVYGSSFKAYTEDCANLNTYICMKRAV

T12: Fc-wtNKG2D (wild-type NKG2D ectodomain fused to the C-terminus of human IgG1 Fc) (human, UniProt P26718 78-216)
T12 construct: range 78-216; Dimeric secreted protein from Expi293 cells; also called Fc-NKG2D; not shown: human IgG1 Fc
T12 sequence: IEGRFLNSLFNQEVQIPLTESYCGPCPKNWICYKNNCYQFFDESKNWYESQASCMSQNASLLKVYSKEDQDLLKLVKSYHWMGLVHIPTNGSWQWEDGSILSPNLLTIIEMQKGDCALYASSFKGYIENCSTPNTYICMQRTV

B1: Fc-iNKG2D.YA (NKG2D ectodomain Y152A fused to the C-terminus of human IgG1 Fc) (Fc fusion)
chain: T12 sequence with Y79A
notes: range 78-216; it is not tied by words to this Fc fusion; not shown: human IgG1 Fc
B2: Rituximab (antibody, V domains shown)
VH: QVQLQQPGAELVKPGASVKMSCKASGYTFTSYNMHWVKQTPGRGLEWIGAIYPGNGDTSYNQKFKGKATLTADKSSSTAYMQLSSLTSEDSAVYYCARSTYYGGDWYFNVWGAGTTVTVSA
VL: QIVLSQSPAILSASPGEKVTMTCRASSSVSYIHWFQQKPGSSPKPWIYATSNLASGVPVRFSGSGSGTSYSLTISRVEAEDAATYYCQQWTSNPPTFGGGTKLEIKR
notes: also called Rituximab (ADCC-); Rituxumab (ADCC); copies: 2 + 2
B3: Rituximab.HC-U2S3 MicAbody (U2S3 A1-A2 domain fused to the C-terminus of the rituximab heavy chain) (bispecific antibody, IgG1)
heavy (part 1 of 2): QVQLQQPGAELVKPGASVKMSCKASGYTFTSYNMHWVKQTPGRGLEWIGAIYPGNGDTSYNQKFKGKATLTADKSSSTAYMQLSSLTSEDSAVYYCARSTYYGGDWYFNVWGAGTTVTVSAA
heavy (part 2 of 2): GGGSEPHSLSYDITVIPKFRPGPRWCAVQGQVDEKTFLHYDCGQKTVTPVSPLGKKLQVTTAWKAQNPVLREVVDILTEQLWDIQLENYTPKEPLTLQARMSCEQKAEGHSSGSWQFSFDGQIFLLFDSEKRMWTTVHPGARKMKEKWENDKVVATKLYLWSMGDCIGWLEDFLMGMDSTLEPS
light: QIVLSQSPAILSASPGEKVTMTCRASSSVSYIHWFQQKPGSSPKPWIYATSNLASGVPVRFSGSGSGTSYSLTISRVEAEDAATYYCQQWTSNPPTFGGGTKLEIK
notes: IgG1 kappa, D265A/N297A; also called HC-fused MicAbody; Rit.HCd.S3; not shown: human IgG1 heavy-chain constant region, ADCC-deficient; human kappa light-chain constant region

Assays:
[1] = molecular target: T1, His-tagged monomeric ULBP2 R81W; assay: Octet BLI; Fc-iNKG2D.YA captured on AHC tips, dilution series of His-tagged monomeric ligand
Text: YA. […] YA were captured with anti-human IgG Fc capture (AHC) biosensor tips then associated with a dilution series of ligand. Data are from single experiments.

[2] = molecular target: T2, ULBP4-Fc (R&D Systems); assay: ELISA; ligand-Fc coated, biotinylated Fc-iNKG2D.YA, streptavidin-HRP (legend: the Fc-NKG2D is titrated; axis on the sheet: nM ligand-Fc)
[3] = molecular target: T3, MICA-Fc (R&D Systems); assay: as above
[4] = molecular target: T4, ULBP3-Fc (R&D Systems); assay: as above
[5] = molecular target: T5, ULBP2-Fc (R&D Systems); assay: as above
[6] = molecular target: T6, MICB-Fc (R&D Systems); assay: as above
[7] = molecular target: T7, ULBP1-Fc (R&D Systems); assay: as above
[8] = molecular target: T8, A1-A2 domain of human ULBP3 with …; assay: Octet BLI; Fc-iNKG2D.YA captured on AHC tips, dilution series of His-tagged monomeric ligand
Text: (§1) Note that all axes are to the same scale (Binding-0 nm, 0.4 nm. 0.8 nm, 1.2 nm (y-axis); Time-0 s, 50 s, 100 s, 150 s, 200 s, 250 s, 300 s, 350 s (x-axis). Data is representative of a single experiment.

[9] = molecular target: T9, A1-A2 domain of human MICA*001 with …; assay: as above
Text: as §1

[10] = molecular target: T10, A1-A2 domain of human MICB with …; assay: as above
Text: as §1

[11] = molecular target: T11, mouse NKG2D; assay: ELISA on mouse NKG2D, absorbance against nM MicAbody
[12] = molecular target: B1; assay: Octet BLI; Fc-iNKG2D.YA captured on AHC tips, two-fold dilution series from 50 nM
Text: (§2) The y-axes corresponding to binding responses were set to the same scale for all sensograms.

[13] = molecular target: T12, Fc-wtNKG2D (wild-type NKG2D ectodomain …); assay: Octet BLI; Fc-wtNKG2D captured on AHC tips, two-fold dilution series from 50 nM
Text: as §2

[14] = molecular target: B1; assay: Octet BLI; Fc-iNKG2D.YA captured on AHC tips, two-fold dilution series of MicAbody from 50 nM
Text: as §2

[15] = molecular target: T12, Fc-wtNKG2D (wild-type NKG2D ectodomain …); assay: Octet BLI; Fc-wtNKG2D captured on AHC tips, two-fold dilution series of MicAbody from 50 nM
Text: as §2

B1 was tested, and the Kd [1] was 3600 nM, the binding result [2] was “no binding (tested: 2000 nM)” and the binding result [3] was “no binding (tested: 2000 nM)”. B1: no binding (tested: 2000 nM) [4]; no binding (tested: 2000 nM) [5]; no binding (tested: 2000 nM) [6]. B1: no binding (tested: 2000 nM) [7]; no binding (tested: 1.2 uM) [8]; no binding (tested: 1.2 uM) [9]. B1: no binding (tested: 0.3 uM) [10].

B2: no binding (tested: about 300 nM) [11]; no binding (tested: 50 nM (legend)) [12]; no binding (tested: 50 nM (legend)) [13].

In the case of B3, the Kd [14] is reported as 0.023 nM and the binding result [15] is reported as “no binding (tested: 50 nM (legend))”.
